The text below walks through data of patent US20180282719A1 (published 2018).

Substitutions are numbered along the chain they refer to.

Experiment [1] deals with T1, recombinant soluble human IL-6 receptor (SR344) (human, UniProt P08887 20-344, biotinylated (sites not given) where immobilized via streptavidin or used in phage ELISA).
T1 construct: also called soluble IL-6 receptor; membrane-type IL-6 receptor (when biotinylated and immobilized on the chip)
T1 sequence (looked up): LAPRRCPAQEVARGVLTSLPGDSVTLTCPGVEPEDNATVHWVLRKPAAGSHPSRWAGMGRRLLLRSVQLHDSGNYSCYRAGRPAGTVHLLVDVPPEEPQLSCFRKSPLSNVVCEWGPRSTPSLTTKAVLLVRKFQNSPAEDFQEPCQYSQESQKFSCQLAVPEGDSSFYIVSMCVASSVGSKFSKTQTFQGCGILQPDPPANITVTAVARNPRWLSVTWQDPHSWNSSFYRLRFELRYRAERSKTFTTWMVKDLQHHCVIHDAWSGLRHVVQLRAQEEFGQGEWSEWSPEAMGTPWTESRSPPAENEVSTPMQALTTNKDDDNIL
As to the kind of experiment: SPR Biacore T100, antibody on protein A/G chip, SR344 analyte, 37 C, ratio of pH 5.8 to pH 7.4. Here is the method:
Kinetic analysis of antigen-antibody reactions at pH 7.4 and pH 5.8 was carried out using a Biacore T100™ surface plasmon resonance system (GE Healthcare) for the four types of antibodies prepared: WT-IgG1, H54/L28-IgG1, H170/L82-IgG1, and Fv4-IgG1 (buffer: 10 mM MES (pH 7.4 or pH 5.8), 150 mM NaCl, 0.05% Surfactant P20 (polyoxyethelene sorbitan monolaurate)). The antibodies were bound to a sensor chip on which recomb-protein A/G (Pierce) was immobilized by amine coupling, and SR344 adjusted to an appropriate concentration was injected therein as an analyte. The association with and dissociation from SR344 of each type of antibody were observed on a real-time basis. All the measurements were carried out at 37° C. Association rate constants kₐ (1/Ms) and dissociation rate constants kd (1/s) were calculated using Biacore T100™ Evaluation Software (GE Healthcare), and dissociation constants KD (M) were calculated based on those values (Table 17).
A general note: In SPR one partner is held on a chip, and binding of the other changes the refractive index at the surface.

In experiment [2] the target is T1, recombinant soluble human IL-6 receptor …. As to the kind of experiment: SPR Biacore T100, antibody on protein A/G chip, SR344 analyte, pH 5.8, 37 C. The procedure: Kinetic analyses of antigen-antibody reactions at pH 5.8 and pH 7.4 were carried out using a Biacore™ T100 surface plasmon resonance system (GE Healthcare) on the four antibodies: humanized PM1 antibody (WT) and H3pI/L73, CLH5/L73, and H170/L82 produced in Examples 2 and 4 (buffer: 10 mM MES (pH 7.4 or pH 5.8), 150 mM NaCl, and 0.05% TWEEN® 20 (polyoxyethelene sorbitan monolaurate)). Various antibodies were bound onto a sensor chip immobilized with recomb-protein A/G (Pierce) by amine coupling. SR344 adjusted to concentrations of 9.8 to 400 nM was injected to the chip as an analyte. […] All the measurements were carried out at 37° C. Association rate constants kₐ (1/Ms) and dissociation rate constants kd (1/s) were calculated using Biacore T100™ Evaluation Software (GE Healthcare), and dissociation constants KD (M) were calculated on the basis of those values (Table 5). Moreover, the ratio of the affinities at pH 5.8 and pH 7.4 were calculated for each clone to evaluate pH-dependent binding. All the measurements were carried out at 37° C.

Experiment [3] has the same target. In words: SPR Biacore T100, biotinylated SR344 on streptavidin chip (model of membrane IL-6 receptor), antibody 0.5 ug/mL as analyte, bound at pH 7.4, dissociation at pH 7.4, 37 C. Here is the method:
The binding to membrane IL-6 receptor was evaluated by evaluating the binding to the IL-6 receptor immobilized onto a sensor chip. SR344 was biotinylated according to a method known to persons skilled in the art, and the biotinylated SR344 was immobilized on the sensor chip via streptavidin by utilizing the affinity between streptavidin and biotin. All the measurements were carried out at 37° C., and the mobile phase buffer contained 10 mM MES (pH 5.8), 150 mM NaCl and 0.05% TWEEN® 20 (polyoxyethelene sorbitan monolaurate). The pH-dependent binding clones were injected therein under the condition of pH 7.4 and allowed to bind to SR344 (injection sample buffer: 10 mM MES (pH 7.4), 150 mM NaCl, 0.05% TWEEN® 20 (polyoxyethelene sorbitan monolaurate)), and the pH-dependent dissociation of each clone at the mobile phase pH of 5.8 was observed (FIG. 10).
The dissociation rate […]) at pH 5.8 was calculated using Biacore T100™ Evaluation Software (GE Healthcare) by fitting only the dissociation phase at pH 5.8, where 0.5 μg/mL of the sample was bound in 10 mM MES (pH 7.4), 150 mM NaCl, and 0.05% TWEEN® 20 (polyoxyethelene sorbitan monolaurate), and dissociated in 10 mM MES (pH 5.8), 150 mM NaCl, and 0.05% TWEEN® 20 (polyoxyethelene sorbitan monolaurate). Similarly, the dissociation rate (kd(1/s)) at pH 7.4 was calculated using Biacore T100™ Evaluation Software (GE Healthcare) by fitting only the dissociation phase at pH 7.4, where 0.5 μg/mL of the sample was bound in 10 mM MES (pH 7.4), 150 mM NaCl, and 0.05% TWEEN® 20 (polyoxyethelene sorbitan monolaurate), and dissociated in 10 mM MES (pH 7.4), 150 mM NaCl, and 0.05% TWEEN® 20 (polyoxyethelene sorbitan monolaurate).

B1: Fv4-IgG1 (antibody)
heavy: not shown
light: DIQMTQSPSSLSASVGDSVTITCQASTDISSHLNWYQQKPGKAPELLIYYGSHLLSGVPSRFSGSGSGTDFTFTISSLEAEDAATYYCGQGNRLPYTFGQGTKVEIERTVAAPSVFIFPPSDEQLKSGTASVVCLLNNFYPREAKVQWKVDNALQSGNSQESVTEQDSKDSTYSLSSTLTLSKADYEKHKVYACEVTHQGLSSPVTKSFNRGEC
notes: VH3-IgG1 / VL3-CK
As for B1, in experiment [1], the “KD (pH 5.8)/KD (pH 7.4)” value came out at 27.3 and the “kd (pH 5.8)/kd (pH 7.4)” value turned out to be 38.8.

B2: humanized PM1 antibody (wild type, WT) (antibody, human IgG1, kappa, V domains shown)
VH: QVQLQESGPGLVRPSQTLSLTCTVSGYSITSDHAWSWVRQPPGRGLEWIGYISYSGITTYNPSLKSRVTMLRDTSKNQFSLRLSSVTAADTAVYYCARSLARTTAMDYWGQGSLVTVSS
VL: DIQMTQSPSSLSASVGDRVTITCRASQDISSYLNWYQQKPGKAPKLLIYYTSRLHSGVPSRFSGSGSGTDFTFTISSLQPEDIATYYCQQGNTLPYTFGQGTKVEIKR
notes: IgG1; also called WT-IgG1; wild type humanized anti-IL-6 receptor antibody
A word on the Kd: it is the constant that tells how readily two partners part at equilibrium. The koff is the rate constant with which the complex falls apart. For orientation: kon means the rate constant with which the complex forms. Turning to B2, in experiment [2], the Kd was determined as 5 nM, the koff is 0.0038 s⁻¹ and the kon is 760000 M⁻¹ s⁻¹. For the same molecule, in experiment [1], the “KD (pH 5.8)/KD (pH 7.4)” value was determined as 1.6 and the “kd (pH 5.8)/kd (pH 7.4)” value came to 2.9. Also, the off-rate (koff) in experiment [3] was found to be 0.000484 s⁻¹.

B3: H3pI/L73 (antibody, IgG1, V domains shown)
VH: QVQLQESGPGLVKPSETLSLTCAVSGHSISHDHAHSWVRQPPGEGLEWIGYISYSGITNYNPSLKGRVTISRDTSKNQFSLKLSSVTAADTAAYYCARSLARTTAMDYWGEGTLVTVSS
VL: DIQMTQSPSSLSASVGDSVTITCQASQHISSHLNWYQQKPGKAPELLIYYGSHLHSGVPSRFSGSGSGTDFTFTISSLEAEDAATYYCGQGNRLPYTFGQGTKVEIE
notes: tested as IgG1; also called H3pI/L73-IgG1; H3pl/L73
As to B3, in experiment [2], the Kd stood at 57 nM, the koff was determined as 0.0097 s⁻¹ and the kon amounted to 170000 M⁻¹ s⁻¹. In experiment [3], the off-rate constant (koff) worked out at 0.000344 s⁻¹.

B4: H170/L82 (antibody, IgG1, V domains shown)
VH: B3 VH with D32H, N59H, S63H, S99V, T103I, Y108H
VL: B3 VL with H28D
notes: expressed and purified as IgG (IgG1); also called H170/L82-IgG1
On to B4, for which, in experiment [2], the Kd amounted to 640 nM, the koff came to 0.017 s⁻¹ and the kon worked out at 26000 M⁻¹ s⁻¹. In experiment [1], the “KD (pH 5.8)/KD (pH 7.4)” value was 61.9 and the “kd (pH 5.8)/kd (pH 7.4)” value came to 11.4. Moreover, the koff in experiment [3] was 0.00077 s⁻¹.
